Data reported in paper PMC3397886.

How the values were obtained:
[1] = target: A3B3D (A-His8/ΔCys, A-C255A/A-S232A/A-T235S, D/E48C) labelled with Cy3-maleimide on subunit D (Thermus thermophilus) (UniProt Q56403); experiment: FRET or BRET
[2] = target: V1 (A-His8/ΔCys, A-C255A/A-S232A/A-T235S/F-S54C) labelled with Cy3-maleimide on subunit F (Thermus thermophilus) (UniProt Q56403); experiment: FRET or BRET

A Kd [1] of 1.1 nM and a Kd [2] of 0.26 nM were found for “Vo (C-S105C/C-C268S/C-C323S) labelled with Cy5-maleimide on subunit C (from UniProt P74902 1-323; P74901 1-188) (complex)” in this work.
